Reference: patent US20040265797A1 (CHIRON, published 2004)
Square brackets hold non-standard residues; d marks the D form. Ends that are not written are not given here.

Assays:
[1] = molecular target: T1, Soluble recombinant human urokinase receptor (suPAR) (human, UniProt Q03405 23-299, limits assumed, biotinylated in the plate assays (sites not given)); assay: alanine scan of peptide 9; competition with phage displaying peptide 9 for soluble uPAR
T1 construct: Only called a soluble truncated form of the urokinase receptor; also called soluble uPAR; biotinylated suPAR
T1 sequence (Q03405 23-299 limits assumed): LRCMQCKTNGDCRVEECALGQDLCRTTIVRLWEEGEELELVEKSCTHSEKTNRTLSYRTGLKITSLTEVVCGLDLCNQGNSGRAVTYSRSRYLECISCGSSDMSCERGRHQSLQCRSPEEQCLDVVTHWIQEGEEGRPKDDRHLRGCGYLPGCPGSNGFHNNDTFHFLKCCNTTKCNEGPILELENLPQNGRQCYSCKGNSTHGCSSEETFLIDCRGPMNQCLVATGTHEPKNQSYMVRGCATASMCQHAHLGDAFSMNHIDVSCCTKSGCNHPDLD

[2] = molecular target: T1, Soluble recombinant human urokinase …; assay: competition with phage displaying peptide 9 for soluble uPAR; * quantity tested could have been lower
Method: (§1) The final anti-M13 conjugate dilution was 1:4000.
(§2) These concentrations were calculated based on the synthesis reactions.

[3] = molecular target: T1, Soluble recombinant human urokinase …; assay: competition with phage displaying peptide 9 for soluble uPAR
Method: as §1, §2

Binder | binding result [1] | % Inhibition at 2.5 uM [2] [%] | % Inhibition at 5 uM [3] [%] | % Inhibition at 2.5 uM [3] [%]
AEFFKAGPNGYVYLHSA-NH2 [Analog 69 (peptide 9, Leu at position 6 to alanine)] | no binding |  |  | 
AEFFKLGPNGAVYLHSA-NH2 [Analog 74 (peptide 9, Tyr at position 11 to alanine)] | no binding |  |  | 
AEFFKLGPNGYAYLHSA-NH2 [Analog 75 (peptide 9, Val at position 12 to alanine)] | no binding |  |  | 
AEFFKLGPNGYVALHSA-NH2 [Analog 76 (peptide 9, Tyr at position 13 to alanine)] | no binding |  |  | 
[dA]EFFKLGPNGYVYLHSA-NH2 (N-terminus assumed; SMILES CC(C)C[C@H](NC(=O)[C@H](CCCCN)NC(=O)[C@H](Cc1ccccc1)NC(=O)[C@H](Cc1ccccc1)NC(=O)[C@H](CCC(=O)O)NC(=O)[C@@H](C)N)C(=O)NCC(=O)N1CCC[C@H]1C(=O)N[C@@H](CC(N)=O)C(=O)NCC(=O)N[C@@H](Cc1ccc(O)cc1)C(=O)N[C@H](C(=O)N[C@@H](Cc1ccc(O)cc1)C(=O)N[C@@H](CC(C)C)C(=O)N[C@@H](Cc1c[nH]cn1)C(=O)N[C@@H](CO)C(=O)N[C@@H](C)C(N)=O)C(C)C) [Analog 82] |  | 24 | 41 | 
AEFFKLG[dP]NGYVYLHSA-NH2 (N-terminus assumed; SMILES CC(C)C[C@H](NC(=O)[C@H](CCCCN)NC(=O)[C@H](Cc1ccccc1)NC(=O)[C@H](Cc1ccccc1)NC(=O)[C@H](CCC(=O)O)NC(=O)[C@H](C)N)C(=O)NCC(=O)N1CCC[C@@H]1C(=O)N[C@@H](CC(N)=O)C(=O)NCC(=O)N[C@@H](Cc1ccc(O)cc1)C(=O)N[C@H](C(=O)N[C@@H](Cc1ccc(O)cc1)C(=O)N[C@@H](CC(C)C)C(=O)N[C@@H](Cc1c[nH]cn1)C(=O)N[C@@H](CO)C(=O)N[C@@H](C)C(N)=O)C(C)C) [Analog 88] |  | 80 | 76 | 
AEFFKLGPNGYVYL[dH]SA-NH2 (N-terminus assumed; SMILES CC(C)C[C@H](NC(=O)[C@H](CCCCN)NC(=O)[C@H](Cc1ccccc1)NC(=O)[C@H](Cc1ccccc1)NC(=O)[C@H](CCC(=O)O)NC(=O)[C@H](C)N)C(=O)NCC(=O)N1CCC[C@H]1C(=O)N[C@@H](CC(N)=O)C(=O)NCC(=O)N[C@@H](Cc1ccc(O)cc1)C(=O)N[C@H](C(=O)N[C@@H](Cc1ccc(O)cc1)C(=O)N[C@@H](CC(C)C)C(=O)N[C@H](Cc1c[nH]cn1)C(=O)N[C@@H](CO)C(=O)N[C@@H](C)C(N)=O)C(C)C) [Analog 94] |  |  | 41 | 36
AEFFKLGPNGYVYLH[dS]A-NH2 (N-terminus assumed; SMILES CC(C)C[C@H](NC(=O)[C@H](CCCCN)NC(=O)[C@H](Cc1ccccc1)NC(=O)[C@H](Cc1ccccc1)NC(=O)[C@H](CCC(=O)O)NC(=O)[C@H](C)N)C(=O)NCC(=O)N1CCC[C@H]1C(=O)N[C@@H](CC(N)=O)C(=O)NCC(=O)N[C@@H](Cc1ccc(O)cc1)C(=O)N[C@H](C(=O)N[C@@H](Cc1ccc(O)cc1)C(=O)N[C@@H](CC(C)C)C(=O)N[C@@H](Cc1c[nH]cn1)C(=O)N[C@H](CO)C(=O)N[C@@H](C)C(N)=O)C(C)C) [Analog 95] |  |  | 59 | 47
AEFFKLGPNGYVYLHS[dA]-NH2 (N-terminus assumed; SMILES CC(C)C[C@H](NC(=O)[C@H](CCCCN)NC(=O)[C@H](Cc1ccccc1)NC(=O)[C@H](Cc1ccccc1)NC(=O)[C@H](CCC(=O)O)NC(=O)[C@H](C)N)C(=O)NCC(=O)N1CCC[C@H]1C(=O)N[C@@H](CC(N)=O)C(=O)NCC(=O)N[C@@H](Cc1ccc(O)cc1)C(=O)N[C@H](C(=O)N[C@@H](Cc1ccc(O)cc1)C(=O)N[C@@H](CC(C)C)C(=O)N[C@@H](Cc1c[nH]cn1)C(=O)N[C@@H](CO)C(=O)N[C@H](C)C(N)=O)C(C)C) [Analog 96] |  | 38 | 40 | 
